Test results reported in paper PMC5645763.

Tests used:
[1] = molecular target: SdKefQCTD (KTN-containing carboxy-terminal domain construct of the Shewanella denitrificans Kef potassium efflux system) (Shewanella denitrificans); assay: AUC; analytical ultracentrifugation (Figure S3); in solution, at the concentrations used (not given)
[2] = molecular target: SdKefQCTD (KTN-containing carboxy-terminal domain construct of the Shewanella denitrificans Kef potassium efflux system) (Shewanella denitrificans); assay: native MS; nanoelectrospray on a QToF-2, 200 mM ammonium acetate, 7.5 uM with respect to the dimer, positive polarity; collisional activation to remove AMP
[3] = molecular target: SdKefQCTD (KTN-containing carboxy-terminal domain construct of the Shewanella denitrificans Kef potassium efflux system) (Shewanella denitrificans); assay: SEC; gel filtration (Figure S1); in solution, at the concentrations used (not given)
[4] = molecular target: SdKefQCTD (KTN-containing carboxy-terminal domain construct of the Shewanella denitrificans Kef potassium efflux system) (Shewanella denitrificans); assay: SEC-MALS; size-exclusion chromatography-multiangle laser scattering (Figure S2); in solution, at the concentrations used (not given)

stoichiometry N [1]: 2 | stoichiometry N [3]: 2 | stoichiometry N [4]: 2
Substance: SdKefQCTD (KTN-containing carboxy-terminal domain construct of the Shewanella denitrificans Kef potassium efflux system) (domain or fragment)
stoichiometry N [2]: 2
